Test results published in patent CN117836322A (PASTEUR INSTITUT, dated 2024).
Changes are numbered by the printed parent chain.

B1: Cv2.1169 IgG1 (antibody, V domains shown)
VH: QVQLVQSGPEVKKPGTSVKVSCKASGFTFTTSAVQWVRQARGQRLEWIGWIVVGSGNTNYAQKFQERVTITRDMSTTTAYMELSSLRSEDTAVYYCAAPYCSGGTCLDGFDIWGQGTMVTVSS
VL: not shown
B2: Cv2.1353 IgG1 (antibody, V domains shown)
VH: EVQLVESGGGLVQPGGSLRLSCAASGVTVSSNYMNWVRQAPGKGLEWVSVIYSGGSTFYADSVKGRFIISRDNSKNTLYLQMNSLKTEDTAVYYCARDLGPMGFDIWGQGTMVTVSS
VL: DIQMTQSPSFLSASVGDRVTITCRASQGISSYLAWYQQKPGKAPKLLIYAASTLQSGVPSRFSGSGSGTEFTLTISSLQPEDFATYYCQQLNSDPPVTFGPGTKVDIKR
B3: Cv2.3194 IgG1 (antibody, V domains shown)
VH: EVQLVESGGGLIQPGGSLRLSCAASGITVTSNYMSWVRQAPGKGLEWVSVIYPGGSTFYADSVKGRFTISRDNSKNTLYLQMNSLRAEDTAVYYCARDLVVYGMDVWGQGTTVTVSS
VL: EIVLTQSPGTLSLSPGERATLSCRASQSVSSSYLAWYQQKPGQAPRLLIYGASSRATGIPGRFSGSGSGTDFTLTISRLEPEDFAIYYCQQGVTFGGGTKVEIKR
B4: Cv2.3235 IgG1 (antibody, V domains shown)
VH: B3 VH with I27F, T30S, S31R, P53S, L99G, V100D, V101Y
VL: DIQMTQSPSFLSASVGDRVTITCRASQGISSFLAWYQQKPGKAPKLLIYGASTLQSGVTSRFSGSGSGTEFTLTISSLQPEDFATYYCQRLDSYPPITFGQGTRLEIKR
B5: Cv2.5213 IgG1 (antibody, V domains shown)
VH: B3 VH with I27F, T30S, V50L, P53S, F58Y, V100N, V101Y, T111A
VL: B2 VL with F10S, E70D, N92D, D94Y, P95S, V97F

molecular target: T1, SARS-CoV-2 S1结构域 (SARS-CoV-2, UniProt P0DTC2 16-681); assay: SPR (Biacore), antibody coupled to CM5 chip, viral protein as analyte, 25°C
T1 construct: also called S1亚基

Q: With B1 as the binder, how does the Kd read?
A: The Kd was < 1000 nM.

Q: How did the Kd turn out when B2 was run?
A: The Kd was < 1000 nM.

Q: B3 was tested. Which Kd did it give?
A: Its Kd is < 1000 nM.

Q: How did the Kd turn out when B4 was run?
A: Its Kd is < 1000 nM.

Q: With B5 as the binder, how does the Kd read?
A: The Kd was < 1000 nM.
